Assays:
[1] = target: IgG4 allotypes (anti-RhD); test: SPR
[2] = target: IgG2 allotypes (anti-RhD); test: SPR

Kd [1] | Kd [2] | Binder
> 1000 nM |  | human FcγRIIa 131His, biotinylated (receptor, biotin) QAAAPPKAVLKLEPPWINVLQEDSVTLTCQGARSPESDSIQWFHNGNLIPTHTQPSYRFKANNNDSGEYTCQTGQTSLSDPVHLTVLSEWLVLQTPHLEFQEGETIMLRCHSWKDKPLVKVTFFQNGKSQKFSHLDPTFSIPQANHSHSGDYHCTGNIGYTLFSSKPVTITVQVPSMGSSSPMG
 | > 1000 nM | human FcγRIa (his tag) (receptor) QVDTTKAVITLQPPWVSVFQEETVTLHCEVLHLPGSSSTQWFLNGTATQTSTPSYRITSASVNDSGEYRCQRGLSGRSDPIQLEIHRGWLLLQVSSRVFTEGEPLALRCHAWKDKLVYNVLYYRNGKAFKFFHWNSNLTILKTNISHNGTYHCSGMGKHRYTSAGISVTVKELFPAPVLNASVTSPLLEGNLVTLSCETKLLLQRPGLQLYFSFYMGSKTLRGRNTSSEYQILTARREDSGLYWCEAATEDGNVLKRSPELELQVLGLQLPTPVWFH

Reference: PMC7218058 (2020)
